“Also recorded” adds a separate entry of the source.
Legend:
[1] = test system: rat neonatal cardiomyocytes; assay: [3H]-leucine incorporation assay (hypertrophy); type: cell-based
Method: Leucine incorporation in rat neonatal cardiomyocytes was detected as previously described (7). Cells were pre-incubated with 1.0 μCi/mL [^3H]leucine for 24 hours. The medium was aspirated, and the cells were washed twice with ice-cold PBS and once with 10% trichloroacetic acid (TCA; Sigma) and fixed for 45 minutes at 4° C. with 10% TCA. After washing twice with cold 95% ethanol, radioactivity incorporated into the TCA-precipitable material was determined by liquid scintillation counting after solubilization in 0.15N NaOH.
Leucine incorporation in rat neonatal cardiomyocytes was detected as previously described (46). Cells were treated with 1.0 μCi/ml [^3H]-leucine for 24 hours, washed, fixed with 10% trichloroacetate (Sigma) for 45 minutes at 4° C., and then radioactivity was determined by liquid scintillation counting. An anti-mouse ST2 antibody (R&D) was used as a functional neutralizing antibody (12). A normal rat IgG2a (Sigma) and mouse IL-1Rrp2 (R&D) were used as controls for anti-mouse ST2 antibody (R&D) and mouse soluble ST2 (R&D), respectively.

NF-κB = NF-κB nuclear binding activity by EMSA in cardiac fibroblasts; type: cell-based, rat; conditions: angiotensin-II 1 μM, phenylephrine 50 μM, IL-33 10 ng/ml
Method: Electromobility shift assays were performed as described previously (8). Cells were lysed for 10 minutes on ice in a solution containing 10 mM HEPES (pH 7.6), 15 mM KCl, 2 mM MgCl2, 0.1 mM ethylenediamine tetraacetic acid (EDTA), 1 mM dithiothreitol (DTT), 0.5 mM phenylmethylsulphonylfluoride (PMSF), 10 μg/mL leupeptin and 0.2% Nonident P-40. Dishes were gently scraped, and nuclei were collected by centrifugation at 800 g for 30 seconds and then suspended in a solution of 50 mM HEPES, 400 mM KCl, 0.1 mM EDTA, 10% glycerol, 1 mM DTT, 0.5 mM PMSF and 10 μg/mL leupeptin. The mixture was incubated on ice for 30 minutes, and the supernatant was collected after centrifugation for 15 minutes at 400 g. Binding reactions were performed with 5 or 10 μg of nuclear protein in 10 mM Tris, 1 mM DTT, 1 mM EDTA, 5% glycerol, 0.1% Triton X-100, 1 mg poly(dIdC), 5 μg bovine serum albumin (BSA) and approximately 10,000 cpm of −32P-labeled oligonucleotide. The binding reactions for AP-1 activity also contained 5 mM MgCl2. Control reaction mixtures contained a 100-fold excess of unlabeled oligonucleotide and were incubated with nuclear extracts of IL-1β-treated cells. DNA complexes were separated on a 4% nondenaturing polyacrylamide gel in Tris-HCl (6.7 mM), EDTA (1 mM) and ammonium acetate (3.3 mM). The oligonucleotides contained the NF-B binding site (sequence: 5′-AGTTGAGGGGACTTTCCCAGGC-3′ (SEQ ID NO: 15)) and were labeled by standard procedures.
EMSAs were performed as described previously (47). Cells were lysed for 10 minutes on ice in 10 mM HEPES (pH 7.6), 15 mM KCl, 2 mM MgCl2, 0.1 mM EDTA, 1 mM DTT, 0.5 mM PMSF, 10 μg/mL leupeptin, and 0.2% Nonident P-40. Dishes were gently scraped, and nuclei were collected by centrifugation at 800 g for 30 seconds and then suspended in a solution of 50 mM HEPES, 400 mM KCl, 0.1 mM EDTA, 10% glycerol, 1 mM DTT, 0.5 mM PMSF, and 10 μg/mL leupeptin. The mixture was incubated on ice for 30 minutes, and the supernatant was collected after centrifugation for 15 minutes at 400 g. […]

IκBα = IκBα phosphorylation by Western analysis in cardiomyocytes; type: cell-based, rat
Method: (§1) Western analyses were performed as described previously (45). Membranes were incubated with primary antibodies overnight (anti-p44/42MAPK diluted 1:500; phospho-p44/42MAPK (Thr202/Tyr204) 1:1000; phospho-JNK (Thr183/Tyr185) 1:500; p38MAPK 1:500; phospho-p38MAPK (Thr180/Tyr182) 1:500; phospho-Akt (Ser473) 1:1000 and phospho-IκBα 1:1000, all from Cell Signaling, anti-mouse ST2L, from R&D 1:1000 and anti-IL-33 as described above, 1:500) at 4° C., detected with horseradish peroxidase-conjugated antibodies and enhanced chemiluminescence.

MAP kinases and Akt = assay: Western analysis for MAP kinases and Akt in cardiomyocytes; type: cell-based, rat
Method: Phosphorylation of MAP kinases and Akt were detected by Western analysis as previously described (5). Membranes were incubated with primary antibodies overnight (phospho ERK1/2 diluted 1:1000; phospho SAPK/JNK diluted 1:500; phospho p38 MAPK diluted 1:500; phospho Akt (Ser473) diluted 1:1000). All antibodies were from Cell Signaling Technology, Inc. (Danvers, Mass.) and were sequentially detected with horseradish peroxidase-conjugated goat anti-rabbit IgG and enhanced chemiluminescence.
as §1

[2] = test system: WT and ST2KO mice after MI; assay: Experimental myocardial infarction with IL-33 treatment; type: in vivo, mouse; conditions: recombinant rat IL-33 intraperitoneal daily up to 4 weeks
From the text: 86 mice with wild-type (WT) or ST2 knockout (ST2KO) genotypes were randomized into 4 subgroups, Sham or MI operated, and with or without IL-33 treatment. Experimental myocardial infraction operation was done by permanent occlusion of the left anterior coronary artery via open-chest approach under deep anesthesia. IL-33 treatment was done by a single 2 microgram/kg on each day, intraperitoneal, of recombinant rat IL-33 protein, from the day of operation up to 4 weeks.
MI was produced on 8-10 week old mice.

B1: IL-33: recombinant mature rat IL-33, starting with amino acid 109 of the full-length protein, N-terminal His tag (GenBank BC081993) (protein)
chain: SIQGTSLLTESCALSTYNDQSVSFVLENGCYVINVEDCGKNQEKDKVLLRYYESSFPAQSGDGVDGKKLMVNMSPIKDTDIWLNANDKDYSVELQKGDVSPPDQAFFVLHKKSSDFVSFECKNLPGTYIGVKDNQLALVEENDESCNNIMFKLSKM
modifications: left off: small tags and cut ends
[1]; co-treatment with IL-33
  hypertrophy (leucine uptake) induced by angiotensin-II or phenylephrine: can block cardiac hypertrophy; also recorded: potently blocked cardiomyocyte hypertrophy; also recorded: abrogates angiotensin-II- and phenylephrine-induced hypertrophy in cardiomyocytes in vitro; also recorded: blocks hypertrophy induced by angiotensin II; also recorded: dose dependent ability to decrease hypertrophy induced by angiotensin II and phenylephrine; also recorded: can antagonize hypertrophic effects of angiotensin II and phenylephrine; also recorded: blocked angiotensin-II or phenylephrine-induced leucine uptake in a dose-dependent manner
[1]; no other stimulus
  hypertrophy (leucine uptake), IL-33 alone: modest, dose-dependent pro-hypertrophic trend that was not statistically significant; also recorded: modest hypertrophic effect; also recorded: non-significant trend toward stimulating hypertrophy
NF-κB
  NF-κB activation by agent alone: independently activated NF-κB in both cell types
IκBα; PDGF-BB (10 ng/ml) or TNF-α (10 ng/ml), IL-33 10 ng/ml
  reduction of IκBα phosphorylation induced by PDGF-BB or TNF-α: not observed; also recorded: did not block IκBα phosphorylation
IκBα; cardiomyocytes
  IκBα phosphorylation by agent alone: induced IκBα phosphorylation in both cell types
IκBα; cardiomyocytes, co-treatment with IL-33
  IκB phosphorylation under hypertrophic stimulus: reduced IκB phosphorylation in cardiomyocytes
MAP kinases and Akt; IL-33 (10 ng/ml) alone
  phosphorylation of ERK, p38 and JNK MAP kinases: increased phosphorylation of ERK, p38 and JNK MAP kinases; also recorded: generally modest compared with IL-1β; also recorded: activated all MAP kinases
MAP kinases and Akt; IL-33 alone
  Akt activation: minimally activated Akt
MAP kinases and Akt; co-treatment with IL-33
  angiotensin-II-induced Akt activation: did not impair angiotensin-II-induced Akt activation
  angiotensin-II-induced ERK phosphorylation: did not affect ERK phosphorylation
  angiotensin-II-induced JNK phosphorylation: decreased
  angiotensin-II-induced p38MAPK phosphorylation: decreased
[2]; ST2KO mice
  survival after infarction: eliminates this benefit
[2]; WT mice
  survival after infarction: improves survival after infarction
